The values below come from IntAct's records for PubMed 28965847.

B1: Suppressor of fused homolog (Homo sapiens), Q9UMX1 (parent)
chain: MAELRPSGAPGPTAPPAPGPTAPPAFASLFPPGLHAIYGECRRLYPDQPNPLQVTAIVKYWLGGPDPLDYVSMYRNVGSPSANIPEHWHYISFGLSDLYGDNRVHEFTGTDGPSGFGFELTFRLKRETGESAPPTWPAELMQGLARYVFQSENTFCSGDHVSWHSPLDNSESRIQHMLLTEDPQMQPVQTPFGVVTFLQIVGVCTEELHSAQQWNGQGILELLRTVPIAGGPWLITDMRRGETIFEIDPHLQERVDKGIETDGSNLSGVSAKCAWDDLSRPPEDDEDSRSICIGTQPRRLSGKDTEQIRETLRRGLEINSKPVLPPINPQRQNGLAHDRAPSRKDSLESDSSTAIIPHELIRTRQLESVHLKFNQESGALIPLCLRGRLLHGRHFTYKSITGDMAITFVSTGVEGAFATEEHPYAAHGPWLQILLTEEFVEKMLEDLEDLTSPEEFKLPKEYSWPEKKLKVSILPDVVFDSPLH

The variants in this test derive from B1. The settings on record: with gli3_mouse Gli3, Q61602.
Chain of gli3_mouse Gli3, Q61602 (Q61602 whole entry): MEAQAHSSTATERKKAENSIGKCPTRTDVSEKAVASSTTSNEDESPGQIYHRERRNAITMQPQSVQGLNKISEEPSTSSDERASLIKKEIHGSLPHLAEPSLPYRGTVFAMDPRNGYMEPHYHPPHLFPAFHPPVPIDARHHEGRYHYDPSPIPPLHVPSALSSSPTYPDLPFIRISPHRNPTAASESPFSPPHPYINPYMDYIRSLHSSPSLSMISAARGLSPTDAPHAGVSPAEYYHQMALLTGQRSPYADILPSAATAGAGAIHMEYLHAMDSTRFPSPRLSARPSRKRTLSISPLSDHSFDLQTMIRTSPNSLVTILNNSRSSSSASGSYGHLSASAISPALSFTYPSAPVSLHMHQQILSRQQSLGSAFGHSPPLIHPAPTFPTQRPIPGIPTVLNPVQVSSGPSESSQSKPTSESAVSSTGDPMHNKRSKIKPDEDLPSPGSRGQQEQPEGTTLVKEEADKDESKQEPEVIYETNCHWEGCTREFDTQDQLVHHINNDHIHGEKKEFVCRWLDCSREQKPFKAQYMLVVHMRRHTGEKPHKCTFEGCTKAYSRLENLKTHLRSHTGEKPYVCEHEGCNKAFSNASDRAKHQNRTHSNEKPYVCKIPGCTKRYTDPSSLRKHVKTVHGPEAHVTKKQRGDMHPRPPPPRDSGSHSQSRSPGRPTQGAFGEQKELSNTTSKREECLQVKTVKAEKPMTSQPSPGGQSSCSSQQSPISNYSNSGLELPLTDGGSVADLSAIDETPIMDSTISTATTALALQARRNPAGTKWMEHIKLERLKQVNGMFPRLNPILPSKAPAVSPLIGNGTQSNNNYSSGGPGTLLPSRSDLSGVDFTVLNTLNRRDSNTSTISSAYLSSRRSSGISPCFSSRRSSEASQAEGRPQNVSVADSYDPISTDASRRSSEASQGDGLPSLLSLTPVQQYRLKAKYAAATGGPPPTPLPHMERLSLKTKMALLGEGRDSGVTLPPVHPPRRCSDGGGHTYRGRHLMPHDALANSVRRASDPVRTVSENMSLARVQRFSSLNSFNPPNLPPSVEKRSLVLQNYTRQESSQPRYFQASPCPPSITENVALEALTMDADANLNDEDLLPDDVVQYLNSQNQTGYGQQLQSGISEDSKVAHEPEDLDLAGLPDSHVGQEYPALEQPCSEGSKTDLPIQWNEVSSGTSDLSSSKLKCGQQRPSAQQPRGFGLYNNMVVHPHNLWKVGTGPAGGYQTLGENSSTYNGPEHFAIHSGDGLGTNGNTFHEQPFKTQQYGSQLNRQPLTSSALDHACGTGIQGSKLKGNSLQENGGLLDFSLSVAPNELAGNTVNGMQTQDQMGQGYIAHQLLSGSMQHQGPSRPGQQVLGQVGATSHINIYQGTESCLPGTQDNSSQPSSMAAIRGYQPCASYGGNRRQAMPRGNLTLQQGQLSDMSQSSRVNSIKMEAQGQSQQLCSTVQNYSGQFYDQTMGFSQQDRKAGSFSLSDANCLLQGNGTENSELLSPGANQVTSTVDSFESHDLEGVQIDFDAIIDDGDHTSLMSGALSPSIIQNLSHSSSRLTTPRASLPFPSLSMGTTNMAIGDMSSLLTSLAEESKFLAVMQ
In the case of MAELRPSGAPGPTAPPAPGPTAPPAFASLFPPGLHAIYGECRRLYPDQPNPLQVTAIVKYWLGGPDPLDYVSMYRNVGSPSANIPEHWHYISFGLSDLYGDNRVHEFTGTDGPSGFGFELTFRLKRETGESAPPTWPAELMQGLARYVFQSENTFCSGDHVSWHSPLDNSESRIQHMLLTEDPQMQPVQTPFGVVTFLQIVGVCTEELHSAQQWNGQGILELLRTVPIAGGPWLITDMRRGETIFEIDPHLQERVDKGIETDGSNLSGVSAKCAWDDLSRPPEDDEDSRSICIGTQPRRLSGKDTEQIRETLRRGLEINSKPVLPPINPQRQNGLAHDRAPSRKDSLESDSSTAIIPHELIRTRQLESVHLKFNQESGALIPLCLRGRLLHGRHFTYKSITGDMATTFVSTGVEGAFATEEHPYAAHGPWLQILLTEEFVEKMLEDLEDLTSPEEFKLPKEYSWPEKKLKVSILPDVVFDSPLH [I406T], the “effect of a mutation on the interaction” value is “disrupting interaction strength”.

In the case of MAELRPSGAPGPTAPPAPGPTAPPAFASLFPPGLHAIYGECRRLYPDQPNPLQVTAIVKYWLGGPDPLDYVSMYRNVGSPSANIPEHWHYISFGLSDLYGDNRVHEFTGTDGPSGFGFELTFRLKRETGESAPPTWPAELMQGLARYVFQSENTFCSGDHVSWHSPLDNSESRIQRMLLTEDPQMQPVQTPFGVVTFLQIVGVCTEELHSAQQWNGQGILELLRTVPIAGGPWLITDMRRGETIFEIDPHLQERVDKGIETDGSNLSGVSAKCAWDDLSRPPEDDEDSRSICIGTQPRRLSGKDTEQIRETLRRGLEINSKPVLPPINPQRQNGLAHDRAPSRKDSLESDSSTAIIPHELIRTRQLESVHLKFNQESGALIPLCLRGRLLHGRHFTYKSITGDMAITFVSTGVEGAFATEEHPYAAHGPWLQILLTEEFVEKMLEDLEDLTSPEEFKLPKEYSWPEKKLKVSILPDVVFDSPLH [H176R], the “effect of a mutation on the interaction” value is on record as “decreasing interaction strength”.
